Assay results reported in patent publication US20100135951.

Molecular target: purified cIAP1, Q13490
Sequence (Q13490 whole entry): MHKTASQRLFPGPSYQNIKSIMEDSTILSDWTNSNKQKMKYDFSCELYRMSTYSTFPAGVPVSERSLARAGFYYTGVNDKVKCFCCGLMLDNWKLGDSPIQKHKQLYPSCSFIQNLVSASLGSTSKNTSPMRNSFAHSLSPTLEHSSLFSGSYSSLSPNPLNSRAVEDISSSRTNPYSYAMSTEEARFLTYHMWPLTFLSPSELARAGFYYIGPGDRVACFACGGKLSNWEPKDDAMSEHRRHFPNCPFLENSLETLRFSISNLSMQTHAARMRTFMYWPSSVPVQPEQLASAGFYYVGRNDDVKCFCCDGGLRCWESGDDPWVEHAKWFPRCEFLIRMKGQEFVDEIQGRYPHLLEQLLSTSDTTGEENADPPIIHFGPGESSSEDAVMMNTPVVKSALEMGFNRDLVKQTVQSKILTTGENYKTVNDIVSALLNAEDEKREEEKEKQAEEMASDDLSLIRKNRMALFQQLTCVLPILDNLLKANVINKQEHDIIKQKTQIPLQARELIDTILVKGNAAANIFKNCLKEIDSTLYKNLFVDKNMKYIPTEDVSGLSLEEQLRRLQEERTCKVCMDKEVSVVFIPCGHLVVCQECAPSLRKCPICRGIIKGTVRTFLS

B1: recombinant active human caspase-8 (protein)
chain: SESQTLDKVYQMKSKPRGYCLIINNHNFAKAREKVPKLHSIRDRNGTHLDAGALTTTFEELHFEIKPHDDCTVEQIYEILKIYQLMDHSNMDCFICCILSHGDKGIIYGTDGQEAPIYELTSQFTGLKCPSLAGKPKVFFIQACQGDNYQKGIPVETDSEEQPYLEMDLSSPQTRYIPDEADFLLGMATVNNCVSYRNPAEGTWYIQSLCQSLRERCPRGDDILTILTEVNYEVSNKDDKKNMGKQMPQPTFTLRKKLVFPSD
caspase-8 protease activity (fluorogenic substrate Ac-IETD-AMC): purified cIAP1 also suppressed caspase-8 protease activity completely
